Experiment [1] concerns the target Envelope protein (TM in the context of the whole envelope protein) on intact ecotropic N2 virus (Moloney murine leukemia virus) (UniProt P03385). The experiment in a line: cell-based or functional assay.
Experiment [2] deals with Envelope protein (TM) on amphotropic N2 virus (amphotropic murine retrovirus). The experiment in a line: cell-based or functional assay.
Experiment [3] shares this target. The experiment in a line: cell-based or functional assay. This is another data set of the same source.
Experiment [4] has as its target T1, Envelope protein (TM in the context of the whole envelope protein) on intact ecotropic N2 virus (Moloney murine leukemia virus, UniProt P03385 34-649, limits assumed).
T1 construct: The target stands on virus particles; also called intact virus; ecotropic virus
T1 sequence (looked up): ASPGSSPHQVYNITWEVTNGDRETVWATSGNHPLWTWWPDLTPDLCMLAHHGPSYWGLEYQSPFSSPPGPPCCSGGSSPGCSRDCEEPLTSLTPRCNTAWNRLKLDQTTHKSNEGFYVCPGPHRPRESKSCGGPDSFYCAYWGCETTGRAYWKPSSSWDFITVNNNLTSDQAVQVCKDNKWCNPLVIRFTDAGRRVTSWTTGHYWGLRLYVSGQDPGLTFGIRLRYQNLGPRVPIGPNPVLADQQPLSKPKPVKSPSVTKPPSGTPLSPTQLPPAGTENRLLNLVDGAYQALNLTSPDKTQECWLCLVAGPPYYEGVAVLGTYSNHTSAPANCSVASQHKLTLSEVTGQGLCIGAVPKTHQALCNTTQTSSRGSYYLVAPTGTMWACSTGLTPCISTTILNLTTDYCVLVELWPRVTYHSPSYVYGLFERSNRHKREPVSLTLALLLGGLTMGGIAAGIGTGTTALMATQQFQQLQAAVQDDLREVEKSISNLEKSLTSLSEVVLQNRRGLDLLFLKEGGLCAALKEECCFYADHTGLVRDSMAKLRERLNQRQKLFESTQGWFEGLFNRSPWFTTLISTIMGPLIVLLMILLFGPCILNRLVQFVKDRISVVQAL
The experiment in a line: depletion of N2 virus by GST-EIP-1 beads; titer of remaining virus. The method, then: EIP-1 to EIP-5 have been examined using this assay to directly measure the binding of EIPs to the intact virus. In this binding assay, virus is mixed with GST-EIP-agarose beads and incubated for 2 hours. After incubation, the mixtures are centrifuged, and the supernatants are used to transduce fresh NIH3T3 cells. After two days, cells are split into G418-containing medium. Ten to twelve days later, colonies are counted. If the virus binds to EIPs, virus is retained on agarose beads leading to a reduction in virus titer in supernatant. […] In control samples, virus was incubated with GST-agarose beads or beads alone, and no change in virus titer was observed (Table 2).
Whether EIP-1 could interact with TM on the native virion particle was tested. GST-EIP-1 beads were incubated with preparations of a virus vector (N2) containing the neoR gene and pelleted, and the titer of the remaining virus was determined to test for depletion of infectivity from the stock. Whereas beads alone, beads containing GST, or beads with control GST fusions had no effect on the titer, beads with GST-EIP-1 could consistently reduce the titer approximately 4-fold.

Experiment [5] addresses T1, Envelope protein (TM in the context of …). Nature of the experiment: cell-based or functional assay.

Where two headings read alike, the source gives them in different places.

In experiment [1], GST-EIP-2 (from UniProt P08515 1-218) yielded a CFU/2 ul virus (Neo^r colonies after incubation of virus with purified protein, 1 µg/ml, 37° C., 1 h) of 24 CFU; a CFU/10 ul virus (Neo^r colonies after incubation of virus with purified protein, 1 µg/ml, 37° C., 1 h) of 69 CFU; a Fold Increase (ecotropic N2 virus on NIH3T3 cells) of 1 fold; a Neo^r Colonies, 1:1 (ecotropic N2 virus on NIH3T3 cells) of 69 colonies. In experiment [1], the Neo^r Colonies, 1:5 (ecotropic N2 virus on NIH3T3 cells) is 24 colonies and the Ratio (enhancement of virus infectivity) is 1.
As for GST-EIP-1 (from UniProt Q9JI44 1-468), in experiment [2], the increase of titer of amphotropic viruses titered on human cells is 5 to 8 fold.
Take GST-EIP-1B (from UniProt Q9JI44 1-468): in experiment [2], the Fold Increase (amphotropic N2 virus on Hela cells) was found to be 6 fold; the Fold Increase (amphotropic N2 virus on NIH3T3 cells) was found to be 5 fold; the Neo^r Colonies, 1:1 (amphotropic N2 virus on NIH3T3 cells) was found to be 403 colonies; the Neo^r Colonies, 1:5 (amphotropic N2 virus on NIH3T3 cells) came out at 102 colonies. The Neo^r Colonies, Amphotropic N2 virus 5 µl (1:25), Hela cells in experiment [2] turned out to be 594 colonies. Further, in experiment [1], the Fold Increase (ecotropic N2 virus on NIH3T3 cells) is 30 fold; the Neo^r Colonies, 1:1 (ecotropic N2 virus on NIH3T3 cells) is more than 1000 colonies; the Neo^r Colonies, 1:5 (ecotropic N2 virus on NIH3T3 cells) was found to be 353 colonies. In experiment [3], this molecule came in with a Fold Increase (amphotropic N2 virus on NIH3T3 cells) of 6 fold; a Neo^r Colonies, Amphotropic N2 virus 5 µl (1:10), NIH3T3 cells of 403 colonies; a Neo^r Colonies, Amphotropic N2 virus 5 µl (1:25), NIH3T3 cells of 102 colonies.
In experiment [2], GST-EIP-1A (from UniProt Q9JI44 1-468) showed a Fold Increase (amphotropic N2 virus on NIH3T3 cells) of 7 fold; a Neo^r Colonies, 1:1 (amphotropic N2 virus on NIH3T3 cells) of 854 colonies; a Neo^r Colonies, 1:5 (amphotropic N2 virus on NIH3T3 cells) of 136 colonies. In experiment [3], this molecule gave a Fold Increase (amphotropic N2 virus on NIH3T3 cells) of 8 fold; a Neo^r Colonies, Amphotropic N2 virus 5 µl (1:10), NIH3T3 cells of 854 colonies; a Neo^r Colonies, Amphotropic N2 virus 5 µl (1:25), NIH3T3 cells of 136 colonies.

B1: GST-EIP-1 (other)
chain: MATGADVRDILELGGPEGDAASGTISKKDIINPDKKKSKKSSETLTFKRPEGMHREVYALLYSDKKDAPPLLPSDTGRGHRTVKAKLGSKKVRPWKWMPFTNPARKDGAMFFHWRRAAEEGKDYPFARFNKTVQVPVYSEQEYQLYLHDDAWTKAETDHLFDLSRRFDLRFVVIHDRYDHQQFKKRSVEDLKERYYHICAKLANVRAVPGTDLKIPVFDAGHERRRKEQLERLYNRTPEQVAEEEYLLQELRKIEARKKEEKRSQDLQKLITAADTTAEQRRTERKAPKKKLPQKKEAEKPAVPETAGIKFPDFKSAGVTLRSQRMKLPSSVGQKKIKALEQMLLELGVELSPTPTEELVHMFNELRSDLVLLYELKQACANCEYELQMLRHRHEALARAGVLGAPAAAAVGPTPASAEPTVSESGLGLDPTKDTIIDVVGAPLTPNSRKRRESASSSSSVKKAKKP
notes: It was used on glutathione agarose beads or eluted as soluble protein; also called EIP-1 fused with glutathione S-transferase; not shown: glutathione S-transferase (GST)
B1: in experiment [4], the “fold reduction of the titer of remaining virus” value was approximately 4 fold. For the same molecule, the “Ratio (enhancement of virus infectivity)” value in experiment [5] worked out at 30 ratio.

(Values after patent US6469153 (TRUSTEES OF COLUMBIA UNIVERSITY IN THE CITY OF NEW YORK, dated 2002).)
